# Experimental data taken from WO2018065552A1 (dated 2018).
# T1: human CD39 endogenously expressed on Ramos human lymphoma cells (human, UniProt P49961 1-510)
# T1 construct: also called NTPDase1; ENTPD1
# T1 sequence: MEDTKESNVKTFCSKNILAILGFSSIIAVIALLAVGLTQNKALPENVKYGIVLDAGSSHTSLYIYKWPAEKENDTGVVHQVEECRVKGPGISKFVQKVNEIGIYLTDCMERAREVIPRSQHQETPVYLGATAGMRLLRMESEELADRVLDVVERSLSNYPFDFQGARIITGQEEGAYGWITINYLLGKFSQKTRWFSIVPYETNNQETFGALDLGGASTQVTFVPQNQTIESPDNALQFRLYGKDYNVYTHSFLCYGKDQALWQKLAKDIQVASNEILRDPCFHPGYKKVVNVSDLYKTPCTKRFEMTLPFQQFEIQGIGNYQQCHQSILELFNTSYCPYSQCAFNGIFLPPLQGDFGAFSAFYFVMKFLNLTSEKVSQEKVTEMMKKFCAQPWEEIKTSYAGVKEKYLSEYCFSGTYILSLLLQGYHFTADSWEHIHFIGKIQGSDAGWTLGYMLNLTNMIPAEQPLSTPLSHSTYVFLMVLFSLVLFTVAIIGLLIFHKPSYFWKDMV
# Molecular target: T1, human CD39 endogenously expressed on …
# Assay: flow cytometry, antibody titration on Ramos cells endogenously expressing CD39
row,Binder,binding result
1,"HH3/L0 (antibody, human IgG1, V domains shown, Human IgG1 N297Q, huCk; also called mAb38) VH: QVQLVQSGSELKKPGASVKVSCKASGYTFTHYGMNWVRQAPGQGLKWMGWINTYTGEPTYAQDFKGRFVFSLDTSVSTAYLQISSLKAEDTAVYYCARRRYEGNSVFYYFDYWGQGTTVTVSS VL: DIQMTQSPSSLSASVGDRVTITCRASENIYSYFSWYQQKPGKAPKLLIYTAKTLAEGVPSRFSGSGSGTDFTLTISSLQPEDFATYYCQHHYVTPYTFGGGTKVEIK",binds
2,"HH4/L0 (antibody, human IgG1, V domains shown, Human IgG1 N297Q, huCk; HH4 has a glutamic acid substitution at Kabat residue 53; its row is lacking in this copy; If the inference holds, this is mAb39) VH: QVQLVQSGSELKKPGASVKVSCKASGYTFTHYGMNWVRQAPGQGLKWMGWINTETGEPTYADDFKGRFVFSLDTSVSTAYLQISSLKAEDTAVYYCARRRYEGNYVFYYFDYWGQGTTVTVSS VL: DIQMTQSPSSLSASVGDRVTITCRASENIYSYFSWYQQKPGKAPKLLIYTAKTLAEGVPSRFSGSGSGTDFTLTISSLQPEDFATYYCQHHYVTPYTFGGGTKVEIK",no binding
